In patent US20220048967A1 (published 2022):
Numbered stars: 1 amine (or outer) side, 2 acyl side, 3 side chain; on linkers, the order of the positions; unused ones are H or OH. Square brackets hold non-standard residues; d marks the D form. Side chains are listed from the residue outwards. Ends that are not written are not given here. * marks the point of attachment. C20 diacid = O=C(O)CCCCCCCCCCCCCCCCCCC(=O)*; γGlu = O=C(O)[C@H](CCC(=O)[*:2])N[*:1]; AEEA = NCCOCCOCC(=O)O; Aib = CC(C)(N)C(=O)O

T1: human GIP receptor (human, UniProt P48546 22-466)
T1 sequence (looked up): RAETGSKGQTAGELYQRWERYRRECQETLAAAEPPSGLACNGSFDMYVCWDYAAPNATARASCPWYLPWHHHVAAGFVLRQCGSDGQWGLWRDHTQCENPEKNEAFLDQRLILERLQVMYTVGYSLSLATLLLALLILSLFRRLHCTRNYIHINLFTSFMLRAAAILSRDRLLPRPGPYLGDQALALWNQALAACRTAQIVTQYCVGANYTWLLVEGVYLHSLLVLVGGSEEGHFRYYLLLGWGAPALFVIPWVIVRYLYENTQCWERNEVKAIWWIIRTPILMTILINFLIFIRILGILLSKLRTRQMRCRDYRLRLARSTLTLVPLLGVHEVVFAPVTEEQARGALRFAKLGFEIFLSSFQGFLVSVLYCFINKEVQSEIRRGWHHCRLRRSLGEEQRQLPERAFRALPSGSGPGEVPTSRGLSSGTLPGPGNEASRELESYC

B1: Example 10 (peptide)
peptide: Y[Aib]EGTFTSDYSILLDSIAQ[Aib]AFIK([AEEA-AEEA-γGlu-C20 diacid])YLLA[Aib]GPSSGAPPPS-NH2
modifications: N-terminus assumed
SMILES: CC[C@H](C)[C@H](NC(=O)[C@H](CO)NC(=O)[C@H](CC(=O)O)NC(=O)[C@H](CC(C)C)NC(=O)[C@H](CC(C)C)NC(=O)[C@@H](NC(=O)[C@H](CO)NC(=O)[C@H](Cc1ccc(O)cc1)NC(=O)[C@H](CC(=O)O)NC(=O)[C@H](CO)NC(=O)[C@@H](NC(=O)[C@H](Cc1ccccc1)NC(=O)[C@@H](NC(=O)CNC(=O)[C@H](CCC(=O)O)NC(=O)C(C)(C)NC(=O)[C@@H](N)Cc1ccc(O)cc1)[C@@H](C)O)[C@@H](C)O)[C@@H](C)CC)C(=O)N[C@@H](C)C(=O)N[C@@H](CCC(N)=O)C(=O)NC(C)(C)C(=O)N[C@@H](C)C(=O)N[C@@H](Cc1ccccc1)C(=O)N[C@H](C(=O)N[C@@H](CCCCNC(=O)COCCOCCNC(=O)COCCOCCNC(=O)CC[C@H](NC(=O)CCCCCCCCCCCCCCCCCCC(=O)O)C(=O)O)C(=O)N[C@@H](Cc1ccc(O)cc1)C(=O)N[C@@H](CC(C)C)C(=O)N[C@@H](CC(C)C)C(=O)N[C@@H](C)C(=O)NC(C)(C)C(=O)NCC(=O)N1CCC[C@H]1C(=O)N[C@@H](CO)C(=O)N[C@@H](CO)C(=O)NCC(=O)N[C@@H](C)C(=O)N1CCC[C@H]1C(=O)N1CCC[C@H]1C(=O)N1CCC[C@H]1C(=O)N[C@@H](CO)C(N)=O)[C@@H](C)CC
B2: Example 13 (peptide)
peptide: Y[Aib]EGTFTSDYSILLD[Aib]IAQK([AEEA-AEEA-γGlu-C20 diacid])AFIEYLIEGGPSSGAPPPS-NH2
modifications: N-terminus assumed
SMILES: CC[C@H](C)[C@H](NC(=O)[C@H](CC(C)C)NC(=O)[C@H](Cc1ccc(O)cc1)NC(=O)[C@H](CCC(=O)O)NC(=O)[C@@H](NC(=O)[C@H](Cc1ccccc1)NC(=O)[C@H](C)NC(=O)[C@H](CCCCNC(=O)COCCOCCNC(=O)COCCOCCNC(=O)CC[C@H](NC(=O)CCCCCCCCCCCCCCCCCCC(=O)O)C(=O)O)NC(=O)[C@H](CCC(N)=O)NC(=O)[C@H](C)NC(=O)[C@@H](NC(=O)C(C)(C)NC(=O)[C@H](CC(=O)O)NC(=O)[C@H](CC(C)C)NC(=O)[C@H](CC(C)C)NC(=O)[C@@H](NC(=O)[C@H](CO)NC(=O)[C@H](Cc1ccc(O)cc1)NC(=O)[C@H](CC(=O)O)NC(=O)[C@H](CO)NC(=O)[C@@H](NC(=O)[C@H](Cc1ccccc1)NC(=O)[C@@H](NC(=O)CNC(=O)[C@H](CCC(=O)O)NC(=O)C(C)(C)NC(=O)[C@@H](N)Cc1ccc(O)cc1)[C@@H](C)O)[C@@H](C)O)[C@@H](C)CC)[C@@H](C)CC)[C@@H](C)CC)C(=O)N[C@@H](CCC(=O)O)C(=O)NCC(=O)NCC(=O)N1CCC[C@H]1C(=O)N[C@@H](CO)C(=O)N[C@@H](CO)C(=O)NCC(=O)N[C@@H](C)C(=O)N1CCC[C@H]1C(=O)N1CCC[C@H]1C(=O)N1CCC[C@H]1C(=O)N[C@@H](CO)C(N)=O
B3: Example 9 (peptide)
peptide: Y[Aib]EGTFTSDYSILLDSK([AEEA-AEEA-γGlu-C20 diacid])AQ[Aib]AFIEYLIEGGPSSGAPPPS-NH2
modifications: N-terminus assumed
SMILES: CC[C@H](C)[C@H](NC(=O)[C@H](CC(C)C)NC(=O)[C@H](Cc1ccc(O)cc1)NC(=O)[C@H](CCC(=O)O)NC(=O)[C@@H](NC(=O)[C@H](Cc1ccccc1)NC(=O)[C@H](C)NC(=O)C(C)(C)NC(=O)[C@H](CCC(N)=O)NC(=O)[C@H](C)NC(=O)[C@H](CCCCNC(=O)COCCOCCNC(=O)COCCOCCNC(=O)CC[C@H](NC(=O)CCCCCCCCCCCCCCCCCCC(=O)O)C(=O)O)NC(=O)[C@H](CO)NC(=O)[C@H](CC(=O)O)NC(=O)[C@H](CC(C)C)NC(=O)[C@H](CC(C)C)NC(=O)[C@@H](NC(=O)[C@H](CO)NC(=O)[C@H](Cc1ccc(O)cc1)NC(=O)[C@H](CC(=O)O)NC(=O)[C@H](CO)NC(=O)[C@@H](NC(=O)[C@H](Cc1ccccc1)NC(=O)[C@@H](NC(=O)CNC(=O)[C@H](CCC(=O)O)NC(=O)C(C)(C)NC(=O)[C@@H](N)Cc1ccc(O)cc1)[C@@H](C)O)[C@@H](C)O)[C@@H](C)CC)[C@@H](C)CC)C(=O)N[C@@H](CCC(=O)O)C(=O)NCC(=O)NCC(=O)N1CCC[C@H]1C(=O)N[C@@H](CO)C(=O)N[C@@H](CO)C(=O)NCC(=O)N[C@@H](C)C(=O)N1CCC[C@H]1C(=O)N1CCC[C@H]1C(=O)N1CCC[C@H]1C(=O)N[C@@H](CO)C(N)=O
B4: Example 11 (peptide)
peptide: Y[Aib]EGTFTSDYSILLDSIAQ[Aib]AFIEYLLK([AEEA-AEEA-γGlu-C20 diacid])[Aib]GPSSGAPPPS-NH2
modifications: N-terminus assumed
SMILES: CC[C@H](C)[C@H](NC(=O)[C@H](CO)NC(=O)[C@H](CC(=O)O)NC(=O)[C@H](CC(C)C)NC(=O)[C@H](CC(C)C)NC(=O)[C@@H](NC(=O)[C@H](CO)NC(=O)[C@H](Cc1ccc(O)cc1)NC(=O)[C@H](CC(=O)O)NC(=O)[C@H](CO)NC(=O)[C@@H](NC(=O)[C@H](Cc1ccccc1)NC(=O)[C@@H](NC(=O)CNC(=O)[C@H](CCC(=O)O)NC(=O)C(C)(C)NC(=O)[C@@H](N)Cc1ccc(O)cc1)[C@@H](C)O)[C@@H](C)O)[C@@H](C)CC)C(=O)N[C@@H](C)C(=O)N[C@@H](CCC(N)=O)C(=O)NC(C)(C)C(=O)N[C@@H](C)C(=O)N[C@@H](Cc1ccccc1)C(=O)N[C@H](C(=O)N[C@@H](CCC(=O)O)C(=O)N[C@@H](Cc1ccc(O)cc1)C(=O)N[C@@H](CC(C)C)C(=O)N[C@@H](CC(C)C)C(=O)N[C@@H](CCCCNC(=O)COCCOCCNC(=O)COCCOCCNC(=O)CC[C@H](NC(=O)CCCCCCCCCCCCCCCCCCC(=O)O)C(=O)O)C(=O)NC(C)(C)C(=O)NCC(=O)N1CCC[C@H]1C(=O)N[C@@H](CO)C(=O)N[C@@H](CO)C(=O)NCC(=O)N[C@@H](C)C(=O)N1CCC[C@H]1C(=O)N1CCC[C@H]1C(=O)N1CCC[C@H]1C(=O)N[C@@H](CO)C(N)=O)[C@@H](C)CC
B5: Example 12 (peptide)
peptide: Y[Aib]EGTFTSDYSILLDKIAQK([AEEA-AEEA-γGlu-C20 diacid])AFIEYLIEGGPSSGAPPPS-NH2
modifications: N-terminus assumed
SMILES: CC[C@H](C)[C@H](NC(=O)[C@H](CCCCN)NC(=O)[C@H](CC(=O)O)NC(=O)[C@H](CC(C)C)NC(=O)[C@H](CC(C)C)NC(=O)[C@@H](NC(=O)[C@H](CO)NC(=O)[C@H](Cc1ccc(O)cc1)NC(=O)[C@H](CC(=O)O)NC(=O)[C@H](CO)NC(=O)[C@@H](NC(=O)[C@H](Cc1ccccc1)NC(=O)[C@@H](NC(=O)CNC(=O)[C@H](CCC(=O)O)NC(=O)C(C)(C)NC(=O)[C@@H](N)Cc1ccc(O)cc1)[C@@H](C)O)[C@@H](C)O)[C@@H](C)CC)C(=O)N[C@@H](C)C(=O)N[C@@H](CCC(N)=O)C(=O)N[C@@H](CCCCNC(=O)COCCOCCNC(=O)COCCOCCNC(=O)CC[C@H](NC(=O)CCCCCCCCCCCCCCCCCCC(=O)O)C(=O)O)C(=O)N[C@@H](C)C(=O)N[C@@H](Cc1ccccc1)C(=O)N[C@H](C(=O)N[C@@H](CCC(=O)O)C(=O)N[C@@H](Cc1ccc(O)cc1)C(=O)N[C@@H](CC(C)C)C(=O)N[C@H](C(=O)N[C@@H](CCC(=O)O)C(=O)NCC(=O)NCC(=O)N1CCC[C@H]1C(=O)N[C@@H](CO)C(=O)N[C@@H](CO)C(=O)NCC(=O)N[C@@H](C)C(=O)N1CCC[C@H]1C(=O)N1CCC[C@H]1C(=O)N1CCC[C@H]1C(=O)N[C@@H](CO)C(N)=O)[C@@H](C)CC)[C@@H](C)CC

Assays:
human GLP-1 receptor = human GLP-1 receptor (human, UniProt P43220 24-463); assay: cell-based or functional assay
human GIP receptor = target: T1, human GIP receptor; assay: cell-based or functional assay

Binder | hGLP1R cAMP EC50 ratio (human GLP-1 receptor) | hGLP1R cAMP Rel EC50 (human GLP-1 receptor) [nM] | hGIPR cAMP EC50 ratio (human GIP receptor) | hGIPR cAMP Rel EC50 (human GIP receptor) [nM]
Y[Aib]EGTFTSDYSILLDKIAQKEFIQYLLE[Aib]GPSSGAPPPS-NH2 (not fully specified (residue 20)) [Example 14] | 0.0306 | 1.87 | 0.545 | 0.284
H[Aib]EGTFTSDYSILLDKKAQ[Aib]AFIEYLLE[Aib]GPSSGAPPPS-NH2 (not fully specified (residue 17)) [Example 15] | 1.65 | 0.0336 | 0.273 | 0.613
B1 | 0.00912 | 7.64 | 0.151 | 1.28
B2 | 0.0133 | 5.39 | 0.18 | 1.05
B3 | 0.314 | 0.194 | 0.768 | 0.21
B4 | 0.0111 | 6.89 | 0.399 | 0.486
B5 | 0.0603 | 1.15 | 0.659 | 0.3
